Assay results reported in patent US20260166130A1, “PEPTIDE COMPOSITION HAVING ANGIOGENIC ACTIVITY, AND PHARMACEUTICAL COMPOSITION USING SAME AND COSMETIC COMPOSITION USING SAME” (LABTOMEDI CRO CO.,LTD., priority 2022, published 2026).

Test system: HUVECs
Assay: Blood vessel (tube) formation assay on Matrigel
Type: cell-based, human
Conditions: 4 hours, vs. control
Method: HUVECs (20,000 cells/well) were seed on a layer of previously polymerized Matrigel and treated with or without the first peptide and the second peptide. The Matrigel culture was incubated at 37° C. After 4 hours, changes in cell morphology were captured using a phase-contrast microscope (×40). Each sample was assayed in duplicate, and independent experiments were repeated three times. *P<0.05, **P,0.01, ***P<0.001 (vs. control).
HUVECs (20,000 cells/well) were seeded on a layer of previously polymerized Matrigel, treated with the visfatin-derived peptides, and then incubated in a 5% CO2 incubator at 37° C. for 4 hours. Then, changes in the cell morphology were observed and photographed using a phase-contrast microscope at 40× magnification. Each sample was assayed in duplicate, and independent experiments were repeated three times. Angiogenesis was analyzed with ImageJ software using an angiogenesis analyzer (Bethesda, MD, USA).

B1: visfatin (protein, UniProt P43490 1-491, looked up)
Nicotinamide …: MNPAAEAEFNILLATDSYKVTHYKQYPPNTSKVYSYFECREKKTENSKLRKVKYEETVFYGLQYILNKYLKGKVVTKEKIQEAKDVYKEHFQDDVFNEKGWNYILEKYDGHLPIEIKAVPEGFVIPRGNVLFTVENTDPECYWLTNWIETILVQSWYPITVATNSREQKKILAKYLLETSGNLDGLEYKLHDFGYRGVSSQETAGIGASAHLVNFKGTDTVAGLALIKKYYGTKDPVPGYSVPAAEHSTITAWGKDHEKDAFEHIVTQFSSVPVSVVSDSYDIYNACEKIWGEDLRHLIVSRSTQAPLIIRPDSGNPLDTVLKVLEILGKKFPVTENSKGYKLLPPYLRVIQGDGVDINTLQEIVEGMKQKMWSIENIAFGSGGGLLQKLTRDLLNCSFKCSYVVTNGLGINVFKDPVADPNKRSKKGRLSLHRTPAGNFVTLEEGKGDLEEYGQDLLHTVFKNGKVTKSYSFDEIRKNAQLNIELEAAHH
notes: 55 kDa cytokine secreted from adipocytes, used as positive control
- number of master junctions (tube formation) (second peptide except at the 2.0 μM concentration): significantly increased
- number of meshes (tube formation) (positive controls): not significantly changed
